Results published in PMC8876999.

Key:
Assay in all cases: purified protein
Type in all cases: biochemical, Homo sapiens
purified protein [1] = substrate: NC(=O)c1ccc[n+]([C@@H]2O[C@H](COP(=O)(O)OP(=O)(O)OC[C@H]3O[C@@H](n4cnc5c(N)ncnc54)[C@H](O)[C@@H]3O)[C@@H](O)[C@H]2O)c1; conditions: 60 mM L-T4C, pH 7.5, Tris-HCl, varied: cofactor
purified protein [2] = substrate: NC(=O)c1ccc[n+]([C@@H]2O[C@H](COP(=O)(O)OP(=O)(O)OC[C@H]3O[C@@H](n4cnc5c(N)ncnc54)[C@H](OP(=O)(O)O)[C@@H]3O)[C@@H](O)[C@H]2O)c1; conditions: 60 mM L-T4C, pH 7.5, Tris-HCl, varied: cofactor
purified protein [3] = substrate: O=C(O)[C@@H]1CSCN1; conditions: 1 mM NADP+, pH 7.5, Tris-HCl, L-T4C 0-25 mM

B1: PYCR2 (Homo sapiens) (protein)
chain: MSVGFIGAGQLAYALARGFTAAGILSAHKIIASSPEMNLPTVSALRKMGVNLTRSNKETVKHSDVLFLAVKPHIIPFILDEIGADVQARHIVVSCAAGVTISSVEKKLMAFQPAPKVIRCMTNTPVVVQEGATVYATGTHALVEDGQLLEQLMSSVGFCTEVEEDLIDAVTGLSGSGPAYAFMALDALADGGVKMGLPRRLAIQLGAQALLGAAKMLLDSEQHPCQLKDNVCSPGGATIHALHFLESGGFRSLLINAVEASCIRTRELQSMADQEKISPAALKKTLLDRVKLESPTVSTLTPSSPGKLLTRSLALGGKKD
Work on B1 yielded a Km (purified protein [1]) of 660 ± 110 µM, a kcat (purified protein [1]) of 0.36 ± 0.13 s⁻¹ and a kcat/Km (purified protein [1]) of 551 ± 223 M⁻¹ s⁻¹. It also gave a Km (purified protein [2]) of 530 ± 120 µM, a kcat (purified protein [2]) of 0.46 ± 0.02 s⁻¹ and a kcat/Km (purified protein [2]) of 857 ± 224 M⁻¹ s⁻¹. It also gave a Km (purified protein [3]) of 6800 ± 900 µM, a kcat (purified protein [3]) of 0.92 ± 0.04 s⁻¹ and a kcat/Km (purified protein [3]) of 136 ± 19 M⁻¹ s⁻¹.
